{
  "source": "patent US5041542A",
  "about": "“Substituted pyrimido[5,4-d]pyrimidine nucleosides” (Nucleic Acid Research Institute, priority 1988, dated 1991)",
  "proteins": {"B1": {"name": "WI-L2 adenosine kinase (Homo sapiens) (protein)", "chain": "MAAAEEEPKPKKLKVEAPQALRENILFGMGNPLLDISAVVDKDFLDKYSLKPNDQILAEDKHKELFDELVKKFKVEYHAGGSTQNSIKVAQWMIQQPHKAATFFGCIGIDKFGEILKRKAAEAHVDAHYYEQNEQPTGTCAACITGDNRSLIANLAAANCYKKEKHLDLEKNWMLVEKARVCYIAGFFLTVSPESVLKVAHHASENNRIFTLNLSAPFISQFYKESLMKVMPYVDILFGNETEAATFAREQGFETKDIKEIAKKTQALPKMNSKRQRIVIFTQGRDDTIMATESEVTAFAVLDQDQKEIIDTNGAGDAFVGGFLSQLVSDKPLTECIRAGHYAASIIIRRTGCTFPEKPDFH", "notes": "added to the cell-free WI-L2 lysate to give 5 μM final assay concentration; endogenous in cells; host or cells: WI-L2 B lymphoblast cells (cell-free lysate)"}},
  "substrate": "Nc1ncnc2c1ncn2[C@@H]1O[C@H](CO)[C@@H](O)[C@H]1O",
  "test": "Adenosine kinase inhibition (filter binding assay)",
  "type": "biochemical, human",
  "conditions": "other: adenosine as substrate; 37.0 °C",
  "data": [
    {"protein": "B1", "values": [
      {"measurement": "Km", "result": 0.9, "unit": "µM"}
    ]}
  ]
}
